Measured values as given in the supplement of paper PMC9170038.

Tested on: MS2 coat protein
Assay: apparent KD of MS2 coat protein; designed switch direction (-1 OFF switch, 1 ON switch): -1; higher = weaker reporter binding
Outline: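 Designed RNA switches sharing common flanks were transcribed on Illumina chips by stalled E. coli RNA polymerase. They were titrated with SNAP-549-labelled MS2 coat protein, from 0.7 or 1.5 nM doubling to 3 µM, in Tris-HCl pH 7.5 buffer with KCl, MgCl2, BSA, DTT, tRNA and Tween-20. Titrations ran without input, with 200 uM small-molecule ligand, or with an oligonucleotide input. The apparent KD of each design is the median over its clusters, after curve-fitting of normalised cluster fluorescence.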

[1] = Eterna round: R95, input ligand: FMN 200 uM
[2] = Eterna round: R95, input ligand: microRNA oligo, concentration not stated
[3] = Eterna round: R95, input ligand: none
[4] = input ligand: microRNA oligo, concentration not stated

Row | Sequence | apparent KD of MS2 coat protein [1] [nM] | apparent KD of MS2 coat protein [2] [nM] | apparent KD of MS2 coat protein [3] [nM] | apparent KD of MS2 coat protein (input ligand: FMN 200 uM) [nM] | apparent KD of MS2 coat protein (input ligand: none) [nM] | apparent KD of MS2 coat protein [4] [nM]
1 | AAGUACCGUCACGAUAGUGAUGGUACAACAAGCAGUGAAACAUGAGGAUCACCCAUGUCCUCGAUUGCUCGUCUUAU [Sensor 3 - 80] (puzzle: Sensor v3, turn-off variant 2) | 67.7 | 142 | 66.3 | – | – | –
2 | UAUGGUCUUGAGGAUAUACCAGGGUGAGUCCAGGUAGAAGGUAGGACAUGAGGAUCACCCAUGUGACGUAGUGU [Eternabot (L2) Solution 49] (Eterna round: R97, puzzle: Exclusion 6) | – | – | – | 434 | 354 | –
3 | GUCAGCUCGUGAGGAUAUACAUGCGUGCUUCGGCACGAAUUUAAGAUCACAUGAGGAUCACCCAUGUAGAAGGUACGAGCUGAU [ENG2/3-C2] (Eterna round: R96, puzzle: Exclusion NG 2) | – | – | – | 590 | 387 | 320
4 | UCUUUCAUUGUGAGGAUAUGCCCAAAUAAAAGCGGGCAGAAGGCACAUGAGGAUCACCCAUGUCCUGCGGUUAU [salish99_bmx4_r4_150] (Eterna round: R97, puzzle: Brourd's mod of Exclusion 4) | – | – | – | 357 | 56.9 | –
5 | UAAAACUGAGGAUAUACAUGAGGAUCACCCAUGUCAAUUGACAGCGGCGUGGCAAAAGGUAGAAGGCAGGCGGU [Lerete] (puzzle: Exclusion 3) | 43 | 176 | 161 | – | – | –
6 | GGGCUGCGACGCAGCCCAACAAAACAUGAGGAUCACCCAUGUCAGGAUAUACCGAUGCAGCAUCUGUAGAAGGGACAGAUCCAA [Tiraonin] (Eterna round: R96, puzzle: Exclusion NG 3) | – | – | – | – | – | 61.9
7 | GCUACCAGAGUGAGGAUAUCGGAUGCGCAAGCACACGAGAAGGCACAUGAGGAUCACCCAUGUAUGGUAGCCGU [eternacac ex4r4 #9] (Eterna round: R97, puzzle: Brourd's mod of Exclusion 4) | – | – | – | 13.2 | 39.1 | –
8 | AAUAACAGAGGAUAUGCGAAUAAAUAAAACUUUUUUUUUUAACAUGAGGAUCACCCAUGUAGAAGGCUGAUAUU [Ex2 #21] (Eterna round: R97, puzzle: Exclusion 2) | – | – | – | 35.6 | 37 | –
9 | GCACGCAAAGGAUAUCGGAAAGAAAACAUGAGGAUCACCCAUGUAUAUAUCAAAUGGGUGCGAGAAGGUUGAGUGA [Xeleonge] (puzzle: Exclusion 5) | 192 | 60 | 94 | – | – | –
10 | UGAUCUUGUGUUAGGAUAUGCUGGUUUUUUUUUCAGCAGAAGGGACAUGAGGAUCACCCAUGUUCUCUCUUUUU [Magic-10] (puzzle: Brourd's mod of Exclusion 4) | – | 15 | – | – | – | –
11 | CAGUACUGAGGAUAUACAUGAGGAUCACCCAUGUGAUCUAGUGCACGCGUACGUGUACGUAGAAGGCAGUACUG [JL 3.27 m3] (Eterna round: R97, puzzle: Exclusion 3) | – | – | – | 562 | 46.8 | –
12 | CUCAGACAUGAGGAUCACCCAUGUCAGGAUAUCGUCUACCUGUGGAAACACAGGUAGACGAGAAGGGAUGUGUU [SS1 Omei 3 v1] (puzzle: Exclusion 1) | – | 43.5 | – | – | – | –
13 | GUAAUUAAUGUAGGAUAUGCAAGGCGAACCUAAGCAGAAGGACAUGAGGAUCACCCAUGUAUUGCGGUCUGCGUACAGAUCGCU [salish99_ExNG1_r4_008] (Eterna round: R96, puzzle: Exclusion NG 1) | – | – | – | 45.7 | 19.9 | 18.5
14 | CUUUUGUGAGGAUAUCAGUAGUAAAUAAAUAAAAUUUCUACUGAGAAGGCACAUGAGGAUCACCCAUGUUCCUC [salish99_ex3_r3_085] (puzzle: Exclusion 4) | – | 36.3 | – | – | – | –
15 | GUAUUUUGAGGAUAUACAUGAGGAUCACCCAUGUGUCGUAGCGCCAGCCUUAAUACGUGUAGAAGGCAGAAUGU [Eternabot (L1) Solution 75] (Eterna round: R97, puzzle: Exclusion 3) | – | – | – | 20 | 34 | –
16 | GAGAGAAUCUAGGAUAUAUCAAGAGAAGGAGAGAUAGAAGGAGGGACAUGAGGAUCACCCAUGUCUUCGUGUAG [Default title] (Eterna round: R97, puzzle: Exclusion 6) | – | – | – | 15.6 | 16 | –
17 | UCACGGGACUGAGGAUAUACAUCAACCAUGGUUGUAGAAGGCAGAAGGUUGGAUCAUAUACUAAACAUGAGGAUCACCCAUGUU [JR_ExcNG1_Sub030] (Eterna round: R96, puzzle: Exclusion NG 1) | – | – | – | 23.6 | 20.7 | 19.9

Row | Sequence | apparent KD of MS2 coat protein [1] [nM] | apparent KD of MS2 coat protein [2] [nM] | apparent KD of MS2 coat protein [3] [nM] | apparent KD of MS2 coat protein (input ligand: FMN 200 uM) [nM] | apparent KD of MS2 coat protein (input ligand: none) [nM] | apparent KD of MS2 coat protein [4] [nM]
18 | CUAAAUCAUGUAGGAUAUGCGUGGCGAAGCUAUGCAGAAGGACAUGAGGAUCACCCAUGUUCUUCCGUCUGCGUACAGACGGAA [JL ENG1 1.18] (Eterna round: R96, puzzle: Exclusion NG 1) | – | – | – | 316 | 38 | 28.7
19 | UAUUUGUCAGGAUAUGAGUCGUAGAACAAUAGUACUACGUCUCAGAAGGGACAUGAGGAUCACCCAUGUGCCUC [Fiskers Ex 4 Super Stable 44 mod 29] (Eterna round: R96, puzzle: Exclusion 4) | – | – | – | 276 | 28.9 | 24.3
20 | CCAUGUCCGGAGGAUAUGCGCAGACUUACUGCAGCAGAAGGUUGGACUUGAGGAUCACCCAAGUGACCAUUUGU [Esrebionra] (Eterna round: R97, puzzle: Exclusion 6) | – | – | – | 445 | 36 | –
21 | AAGAAACAUGAGGAUCACCCAUGUGAGGAUAUGACUAAGAAAAGAAAAGAAAGAAGAAUCAGAAGGCACAAAGG [salish99-ex1_r3_053] (puzzle: Exclusion 1) | 29.7 | 43 | 49.3 | – | – | –
22 | UAUUAGCAAGCGAGAUCUCACAUGAGGAUCACCCAUGUGCUCGUCUUAUAAGGUACUGUGACGAGAGUCACGGUACC [Mat - Sensor, turn-off var - Eli Mod - D37] (Eterna round: R97, puzzle: Sensor, turn-off variant 1) | – | – | – | 13 | 14.1 | –
23 | GUGCCGCGAGGAUAUACAGACGGGUCCAUUACGUGUCUCGGACUUGAGGAUCACCCAAGUAGAAGGCGUCUCAG [salish99_ex2_r4_625] (Eterna round: R97, puzzle: Exclusion 2) | – | – | – | 51.3 | 40.2 | –
24 | CAUGCUUCGGCAUGUACAAGCUUUUUGCUCGUCUUAUUAACAUGAGGAUCACCCAUGUACAAGAGACCUCAUGUAUU [Sensor v3 - turn-off variant 2 - 11] (puzzle: Sensor v3, turn-off variant 2) | 293 | 22.9 | 338 | – | – | –
25 | UCGAUGUGAGGAUAUAUAUGCAGUAGUCCUUAUGUUUUAUAACUUGAGGAUCACCCAAGUAGAAGGCGCGACGU [JR_Ex2_Sub060] (Eterna round: R97, puzzle: Exclusion 2) | – | – | – | 49.2 | 39.5 | –
26 | UUAUUUAGUGUGAGGAUAUGCUGGUCCAUAGAUCAGCAGAAGGCACAUGAGGAUCACCCAUGUAAUAUAUUAAU [Mat - Exclusion 4 - JL Mod - D32] (puzzle: Brourd's mod of Exclusion 4) | – | 25.2 | – | – | – | –
27 | UGUGAGCUAGGAUAUGCUUUGGGCUCGCUUUCCUUCGAUAAACUUGAGGAUCACCCAAGUAGAAGGAGCUUGCA [Mod 31 - Jieux - Exclusion 2] (Eterna round: R97, puzzle: Exclusion 2) | – | – | – | 39.6 | 20.4 | –
28 | AAAAAGCGAGGAUAUACAGGAAAAGAAAAGAAAAGAAAAGCACAUGAGGAUCACCCAUGUAGAAGGCGCGAAAA [Exclusion 2 #3] (puzzle: Exclusion 2) | 26.1 | 24.7 | 20.8 | – | – | –
29 | CCUAGUUGGUAAGGAUAUCCUACACUGUUCUGACCCGUGCAAGCUACAUGAGGAUCACCCAUGUGGGAGAAGGUGCGUCAACGC [Design 12] (Eterna round: R96, puzzle: Exclusion NG 2) | – | – | – | 29 | 29.2 | 25.3
30 | UCCGGACAUGAGGAUCACCCAUGUCAGGAUAUACCCGAGGCAGCAAACACGCUAGCCAGUAGAAGGGACAUGGU [Geenma] (Eterna round: R97, puzzle: Exclusion 1) | – | – | – | 18.3 | 20.7 | –
31 | GAAUAGGCAGGAUAUACAUGAGGAUCACCCAUGUGCCUGCGAAAGGUACGUUCGAAAGGUAGAAGGGCCUAAAC [ChP 13.04.2015 #6] (puzzle: Exclusion 3) | – | 12.2 | – | – | – | –
32 | AGUACUAACACGAAAGUGUUAGUACAAUAAGCUAGUGGAACAUGAGGAUCACCCAUGUCCUCAUUAGCUCGUCUUGU [Mat - Sensor v3 - Turn-off var 2 - D39] (puzzle: Sensor v3, turn-off variant 2) | 16.2 | 34.8 | 12.5 | – | – | –
33 | AGAAAGCAAGGAUAUACGAGGAGAAGGUGGAAAGUUAAAGGACAUGAGGAUCACCCAUGUAGAAGGUGCGAGAA [JR_Exclu2_Sub043] (puzzle: Exclusion 2) | 79.3 | 46.2 | 55.4 | – | – | –
34 | AGCUGUGGCCGAGGAUAUCUAACAAUCCCAACCGAAAUAUAAUCGGACAUGAGGAUCACCCAUGUAGAGAAGGCGGUCUCAGCA [Eli eng2 - 073] (Eterna round: R96, puzzle: Exclusion NG 2) | – | – | – | – | – | 137
